These results are taken from patent publication US20210155670A1, “SYSTEMS AND METHODS FOR THE PREPARATION OF PEPTIDE-MHC-I COMPLEXES WITH NATIVE GLYCAN MODIFICATIONS” (The Regents of the University of California, priority 2019, published 2021).

For this experiment, the target named is T cell receptor specific for HLA-A*02:01/NYESO, on Jurkat cells / NY-ESO-1 specific T cell line. Nature of the experiment: flow cytometry, PE tetramer staining; the negative cells are said to have lost the TCR. (Flow cytometry measures light scatter and fluorescence of single cells or particles in a stream.)

In the case of “CHO-derived PE-HLA-A*02:01 tetramer loaded with NY-ESO-1 peptide (single-chain complex, TAPBPR-exchanged) (peptide-MHC)”, the tetramer-negative population of cells is 9%.

For “conventionally refolded NYESO/HLA-A*02:01 tetramer (from UniProt P61769 21-119) (peptide-MHC)”, the tetramer-negative population of cells turned out to be 9%.
